# Measurements as given in patent US20100323375.
# T1: FLAG-Alcbeta
# T1 chain 1: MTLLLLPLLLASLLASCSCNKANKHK
# T1 chain 2: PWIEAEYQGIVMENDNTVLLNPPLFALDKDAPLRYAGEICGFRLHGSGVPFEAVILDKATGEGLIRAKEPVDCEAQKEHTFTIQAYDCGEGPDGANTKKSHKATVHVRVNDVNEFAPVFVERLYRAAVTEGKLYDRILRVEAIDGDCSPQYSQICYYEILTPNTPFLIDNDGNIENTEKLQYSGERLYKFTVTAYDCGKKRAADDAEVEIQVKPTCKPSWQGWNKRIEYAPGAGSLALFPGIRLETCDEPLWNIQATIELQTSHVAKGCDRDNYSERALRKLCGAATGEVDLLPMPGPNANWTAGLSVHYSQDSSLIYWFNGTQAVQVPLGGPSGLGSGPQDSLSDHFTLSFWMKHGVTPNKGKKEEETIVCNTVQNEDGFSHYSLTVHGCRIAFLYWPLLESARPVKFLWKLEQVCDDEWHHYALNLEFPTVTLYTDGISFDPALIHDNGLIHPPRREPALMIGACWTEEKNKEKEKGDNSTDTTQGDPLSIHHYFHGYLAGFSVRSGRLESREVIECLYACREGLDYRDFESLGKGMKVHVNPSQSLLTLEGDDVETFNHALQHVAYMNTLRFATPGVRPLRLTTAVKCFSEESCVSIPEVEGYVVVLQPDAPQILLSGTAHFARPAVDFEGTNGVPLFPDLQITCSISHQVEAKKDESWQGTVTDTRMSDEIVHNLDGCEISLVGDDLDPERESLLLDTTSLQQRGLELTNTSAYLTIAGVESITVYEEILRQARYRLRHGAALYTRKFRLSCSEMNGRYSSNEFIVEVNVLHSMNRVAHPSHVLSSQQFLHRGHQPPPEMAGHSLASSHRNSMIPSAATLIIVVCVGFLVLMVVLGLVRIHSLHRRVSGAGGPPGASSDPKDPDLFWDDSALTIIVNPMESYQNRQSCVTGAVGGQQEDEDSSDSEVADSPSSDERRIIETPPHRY
# T2: FLAG-Alcgamma
# T2 chain 1: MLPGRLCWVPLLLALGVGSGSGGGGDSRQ
# T2 chain 2: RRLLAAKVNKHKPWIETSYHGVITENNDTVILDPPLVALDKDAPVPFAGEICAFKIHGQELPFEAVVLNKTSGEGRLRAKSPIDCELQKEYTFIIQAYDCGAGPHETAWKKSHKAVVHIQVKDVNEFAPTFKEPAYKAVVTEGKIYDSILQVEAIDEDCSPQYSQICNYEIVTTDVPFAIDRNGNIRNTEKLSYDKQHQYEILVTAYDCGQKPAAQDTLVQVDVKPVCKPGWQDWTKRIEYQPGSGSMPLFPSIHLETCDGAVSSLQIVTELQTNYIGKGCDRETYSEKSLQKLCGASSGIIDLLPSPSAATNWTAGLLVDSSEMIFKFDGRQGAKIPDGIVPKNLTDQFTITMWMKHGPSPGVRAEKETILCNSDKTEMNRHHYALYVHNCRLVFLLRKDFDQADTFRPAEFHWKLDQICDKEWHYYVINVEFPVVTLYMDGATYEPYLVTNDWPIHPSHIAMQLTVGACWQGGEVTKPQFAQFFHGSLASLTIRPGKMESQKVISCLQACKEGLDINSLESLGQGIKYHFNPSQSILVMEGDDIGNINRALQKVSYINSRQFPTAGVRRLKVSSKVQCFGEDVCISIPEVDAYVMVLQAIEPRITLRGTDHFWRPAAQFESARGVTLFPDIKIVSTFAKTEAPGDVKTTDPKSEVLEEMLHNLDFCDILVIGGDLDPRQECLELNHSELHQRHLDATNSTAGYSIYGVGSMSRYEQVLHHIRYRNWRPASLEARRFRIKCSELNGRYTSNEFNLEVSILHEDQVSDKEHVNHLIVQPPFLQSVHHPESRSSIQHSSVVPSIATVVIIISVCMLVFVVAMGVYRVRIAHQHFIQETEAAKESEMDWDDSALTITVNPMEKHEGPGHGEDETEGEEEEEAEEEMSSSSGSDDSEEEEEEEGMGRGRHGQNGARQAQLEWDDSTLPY
# T3: FLAG-Alcalpha
# T3 chain 1: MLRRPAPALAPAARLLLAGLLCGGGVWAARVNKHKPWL
# T3 chain 2: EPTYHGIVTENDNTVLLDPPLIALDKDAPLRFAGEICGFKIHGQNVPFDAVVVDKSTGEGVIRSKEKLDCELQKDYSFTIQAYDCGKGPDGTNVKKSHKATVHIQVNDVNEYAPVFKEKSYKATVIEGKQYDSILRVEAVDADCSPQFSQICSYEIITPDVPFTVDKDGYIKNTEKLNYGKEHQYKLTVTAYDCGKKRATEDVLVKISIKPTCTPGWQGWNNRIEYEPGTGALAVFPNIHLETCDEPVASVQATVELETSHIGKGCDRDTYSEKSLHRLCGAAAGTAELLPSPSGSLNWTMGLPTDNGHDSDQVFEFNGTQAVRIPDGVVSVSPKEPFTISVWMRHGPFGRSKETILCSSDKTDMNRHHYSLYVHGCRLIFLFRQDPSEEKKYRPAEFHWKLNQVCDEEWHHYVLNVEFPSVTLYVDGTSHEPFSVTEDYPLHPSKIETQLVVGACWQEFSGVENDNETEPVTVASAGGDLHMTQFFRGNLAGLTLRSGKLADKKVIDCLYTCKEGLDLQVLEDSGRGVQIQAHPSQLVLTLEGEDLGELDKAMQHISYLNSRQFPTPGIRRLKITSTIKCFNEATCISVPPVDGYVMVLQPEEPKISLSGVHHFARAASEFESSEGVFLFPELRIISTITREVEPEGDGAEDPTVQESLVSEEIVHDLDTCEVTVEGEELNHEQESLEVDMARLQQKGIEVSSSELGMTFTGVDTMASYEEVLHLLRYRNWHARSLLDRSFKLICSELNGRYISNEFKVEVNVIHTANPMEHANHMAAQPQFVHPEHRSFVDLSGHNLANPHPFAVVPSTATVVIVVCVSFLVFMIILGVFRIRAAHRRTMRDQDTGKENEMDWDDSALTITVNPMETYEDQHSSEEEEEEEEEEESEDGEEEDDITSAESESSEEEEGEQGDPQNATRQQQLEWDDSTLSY
# B1: ADAM10 (endogenous, mouse embryonic fibroblasts) (protein)
# chain: TTLAERNTCQLYIQTDHLFFKYYGTREAVIAQISSHVKAIDTIYQTTDFSGIRNISFMVKRIRINTTSDEKDPTNPFRFPNIGVEKFLELNSEQNHDDYCLAYVFTDRDFDDGVLGLAWVGAPSGSSGGICEKSKLYSDGKKKSLNTGIITVQNYGSHVPPKVSHITFAHEVGHNFGSPHDSGTECTPGESKNLGQKENGNYIMYARATSGDKLNNNKFSLCSIRNISQVLEKKRNNCFVESGQPICGNGMVEQGEECDCGYSDQCKDDCCFDANQPEGKKCKLKPGKQCSPSQGPCCTAQCAFKSKSEKCRDDSDCAKEGICNGFTALCPASDPKPNFTDCNRHTQVCINGQCAGSICEKYDLEECTCASSDGKDDKELCHVCCMKKMAPSTCASTGSLQWSKQFSGRTITLQPGSPCNDFRGYCDVFMRCRLVDADGPLARLKKAIFSPQLYENIAEWIVAHWWAVLLMGIALIMLMAGFIKICSVHTPSSNPKLPPPKPLPGTLKRRRPPQPIQQPPRQRPRESYQMGHMRR
# How the values were obtained:
# FLAG-Alcbeta = molecular target: T1, FLAG-Alcbeta
# FLAG-Alcgamma = molecular target: T2, FLAG-Alcgamma
# FLAG-Alcalpha = molecular target: T3, FLAG-Alcalpha
# FLAG-APP, P05067, sequence (P05067 whole entry, looked up): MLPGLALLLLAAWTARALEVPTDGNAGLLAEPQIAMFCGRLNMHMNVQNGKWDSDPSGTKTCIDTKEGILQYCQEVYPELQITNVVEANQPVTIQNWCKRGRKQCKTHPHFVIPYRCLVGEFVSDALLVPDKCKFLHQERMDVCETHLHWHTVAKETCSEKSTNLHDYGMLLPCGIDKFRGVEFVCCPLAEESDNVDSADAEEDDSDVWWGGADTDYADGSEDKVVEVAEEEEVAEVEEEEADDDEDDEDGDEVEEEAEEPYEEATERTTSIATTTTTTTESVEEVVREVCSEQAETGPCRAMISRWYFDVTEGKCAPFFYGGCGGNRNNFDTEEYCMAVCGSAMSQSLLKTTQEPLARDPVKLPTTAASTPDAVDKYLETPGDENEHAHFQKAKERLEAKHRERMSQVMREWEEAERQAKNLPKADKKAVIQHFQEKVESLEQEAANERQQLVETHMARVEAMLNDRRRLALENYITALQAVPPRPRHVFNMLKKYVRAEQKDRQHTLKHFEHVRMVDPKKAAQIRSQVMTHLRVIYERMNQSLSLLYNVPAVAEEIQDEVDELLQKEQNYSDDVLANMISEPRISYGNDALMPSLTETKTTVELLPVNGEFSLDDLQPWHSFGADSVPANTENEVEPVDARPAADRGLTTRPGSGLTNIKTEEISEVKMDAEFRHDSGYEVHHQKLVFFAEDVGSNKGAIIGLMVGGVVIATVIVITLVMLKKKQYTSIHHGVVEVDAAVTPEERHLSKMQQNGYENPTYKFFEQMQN
protein,measurement,setting,value
B1,"amount of sAlcbeta secreted into the medium (western blot of anti-FLAG immunoprecipitate), ADAM10 (-/-) against (+/-) MEFs",FLAG-Alcbeta,"The amounts of sAlcalpha, sAlcbeta, and sAlcgamma secreted by ADAM (-/-) MEFs were as low as that of APP"
same,"amount of sAlcgamma secreted into the medium (western blot of anti-FLAG immunoprecipitate), ADAM10 (-/-) against (+/-) MEFs",FLAG-Alcgamma,"The amounts of sAlcalpha, sAlcbeta, and sAlcgamma secreted by ADAM (-/-) MEFs were as low as that of APP"
same,"amount of sAlcalpha secreted into the medium (western blot of anti-FLAG immunoprecipitate), ADAM10 (-/-) against (+/-) MEFs",FLAG-Alcalpha,"The amounts of sAlcalpha, sAlcbeta, and sAlcgamma secreted by ADAM (-/-) MEFs were as low as that of APP"
same,"amount of sAPP secreted into the medium (western blot of anti-FLAG immunoprecipitate), ADAM10 (-/-) against (+/-) MEFs","FLAG-APP, P05067",ADAM (-/-) MEFs secreted sAPP (lane 2 of FIG. 1D) 40% lower than ADAM (+/-) MEFs
